Non-standard residues stand in square brackets, D forms with d.
T1: Human importin α3 isoform (residues 1–521) (human, UniProt O00629 1-521)
T1 construct: human importin α3 (Impα3, KPNA4), residues 1-521, intact protein with the N-terminal IBB domain; The materials list Ni2+-resin, ampicillin and IPTG, so expression in E. coli is surmised; also called Impα3; KPNA4
T1 sequence (looked up): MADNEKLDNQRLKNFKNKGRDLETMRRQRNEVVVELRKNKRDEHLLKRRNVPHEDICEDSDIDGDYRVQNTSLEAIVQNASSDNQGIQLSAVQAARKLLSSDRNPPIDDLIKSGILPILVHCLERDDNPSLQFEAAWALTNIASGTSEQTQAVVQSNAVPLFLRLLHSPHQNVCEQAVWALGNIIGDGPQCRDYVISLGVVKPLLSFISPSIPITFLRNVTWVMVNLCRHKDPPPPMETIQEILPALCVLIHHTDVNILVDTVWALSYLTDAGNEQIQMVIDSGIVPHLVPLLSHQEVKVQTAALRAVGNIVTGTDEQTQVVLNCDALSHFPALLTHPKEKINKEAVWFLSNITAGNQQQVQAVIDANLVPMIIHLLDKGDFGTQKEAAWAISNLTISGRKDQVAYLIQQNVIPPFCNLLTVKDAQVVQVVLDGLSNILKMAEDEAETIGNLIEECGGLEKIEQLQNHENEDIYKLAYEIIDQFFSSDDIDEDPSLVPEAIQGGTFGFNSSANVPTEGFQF

T2: IBB-depleted species of Impα3 (residues 64–521 of the intact protein) (human, UniProt O00629 64-521)
T2 construct: PDB 5XZX was used only as the model of ∆Impα3 for docking; its limits may differ from 64-521; also called ΔImpα3; truncated importin species
T2 sequence (looked up): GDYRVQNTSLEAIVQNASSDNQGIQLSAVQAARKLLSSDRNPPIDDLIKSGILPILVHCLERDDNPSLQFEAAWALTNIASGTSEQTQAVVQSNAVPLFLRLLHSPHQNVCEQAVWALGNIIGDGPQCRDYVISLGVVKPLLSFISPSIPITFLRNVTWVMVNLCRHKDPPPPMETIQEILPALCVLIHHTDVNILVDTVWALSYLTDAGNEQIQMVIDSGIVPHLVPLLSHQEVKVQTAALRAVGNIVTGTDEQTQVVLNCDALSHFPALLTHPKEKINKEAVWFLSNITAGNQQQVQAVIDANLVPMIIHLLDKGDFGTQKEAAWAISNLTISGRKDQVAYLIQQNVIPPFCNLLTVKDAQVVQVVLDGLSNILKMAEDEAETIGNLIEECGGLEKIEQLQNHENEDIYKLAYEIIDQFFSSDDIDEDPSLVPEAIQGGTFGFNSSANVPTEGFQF

B1: D-enantiomeric, isolated NLS region of NUPR1L (residues 51–74 of the intact protein) (peptide)
peptide: Ac-[dR][dT][dR][dR][dE][dQ][dA][dL][dR][dT][dN][dW][dP][dA][dP]GG[dH][dE][dR][dK][dV][dA][dQ]-NH2
SMILES: CC(=O)N[C@H](CCCNC(=N)N)C(=O)N[C@@H](C(=O)N[C@H](CCCNC(=N)N)C(=O)N[C@H](CCCNC(=N)N)C(=O)N[C@H](CCC(=O)O)C(=O)N[C@H](CCC(N)=O)C(=O)N[C@H](C)C(=O)N[C@H](CC(C)C)C(=O)N[C@H](CCCNC(=N)N)C(=O)N[C@@H](C(=O)N[C@H](CC(N)=O)C(=O)N[C@H](Cc1c[nH]c2ccccc12)C(=O)N1CCC[C@@H]1C(=O)N[C@H](C)C(=O)N1CCC[C@@H]1C(=O)NCC(=O)NCC(=O)N[C@H](Cc1c[nH]cn1)C(=O)N[C@H](CCC(=O)O)C(=O)N[C@H](CCCNC(=N)N)C(=O)N[C@H](CCCCN)C(=O)N[C@@H](C(=O)N[C@H](C)C(=O)N[C@H](CCC(N)=O)C(N)=O)C(C)C)[C@H](C)O)[C@H](C)O
notes: NLS region of NUPR1L (paralogue of NUPR1), residues 51-74 of the intact protein, made of D-amino acids; also called D-NLS-NUPR1L; source: synthetic peptide (Genscript, purity higher than 95%)
B2: D-enantiomeric, isolated, non-canonical NLS of PADI4 (peptide)
peptide: Ac-[dK][dL][dF][dQ][dE][dQ][dQ][dN][dE]G[dH]G[dE][dA][dL][dL][dF][dE]G[dI][dK][dK][dK][dK][dQ][dQ][dK][dI]-NH2
SMILES: CC[C@@H](C)[C@@H](NC(=O)[C@@H](CCCCN)NC(=O)[C@@H](CCC(N)=O)NC(=O)[C@@H](CCC(N)=O)NC(=O)[C@@H](CCCCN)NC(=O)[C@@H](CCCCN)NC(=O)[C@@H](CCCCN)NC(=O)[C@@H](CCCCN)NC(=O)[C@H](NC(=O)CNC(=O)[C@@H](CCC(=O)O)NC(=O)[C@@H](Cc1ccccc1)NC(=O)[C@@H](CC(C)C)NC(=O)[C@@H](CC(C)C)NC(=O)[C@@H](C)NC(=O)[C@@H](CCC(=O)O)NC(=O)CNC(=O)[C@@H](Cc1c[nH]cn1)NC(=O)CNC(=O)[C@@H](CCC(=O)O)NC(=O)[C@@H](CC(N)=O)NC(=O)[C@@H](CCC(N)=O)NC(=O)[C@@H](CCC(N)=O)NC(=O)[C@@H](CCC(=O)O)NC(=O)[C@@H](CCC(N)=O)NC(=O)[C@@H](Cc1ccccc1)NC(=O)[C@@H](CC(C)C)NC(=O)[C@@H](CCCCN)NC(C)=O)[C@H](C)CC)C(N)=O
notes: second predicted (non-canonical) NLS region of PADI4 (protein arginine deiminase 4), residues 499-526 of the intact protein, made of D-amino acids; Mirror-image (all-D) peptide; also called D-NLS-PADI; D-form of NLS2-PADI4; source: synthetic peptide (Genscript, purity higher than 95%)

What was measured:
Conditions in all cases: both partners purified
[1] = molecular target: T1, Human importin α3 isoform (residues …); assay: ITC; importin species (15 µM in protomer units) in the cell, D-NLS peptide (150–200 µM) in the syringe; Tris buffer 50 mM, pH 8.0; 25 °C; single set of binding sites
[2] = molecular target: T2, IBB-depleted species of Impα3 (residues …); assay: as above
[3] = molecular target: T1, Human importin α3 isoform (residues …); assay: BLI; His-tagged Impα3 or ∆Impα3 immobilised on His-tag biosensors at 0.25 μM; peptides 1 to 10 μM; BLItz system, manufacturer's 10x kinetics buffer; 25 °C; kon and koff from pseudo-first-order plots; apparent Kd = koff/kon, two-state process assumed
[4] = molecular target: T1, Human importin α3 isoform (residues …); assay: ITC; importin species (15 µM in protomer units) in the cell, D-NLS peptide (150–200 µM) in the syringe; Tris buffer 50 mM, pH 8.0; 25 °C; single set of binding sites; remark: listed apart in the source
[5] = molecular target: T2, IBB-depleted species of Impα3 (residues …); assay: as above; remark: listed apart in the source
[6] = molecular target: T2, IBB-depleted species of Impα3 (residues …); assay: BLI; His-tagged Impα3 or ∆Impα3 immobilised on His-tag biosensors at 0.25 μM; peptides 1 to 10 μM; BLItz system, manufacturer's 10x kinetics buffer; 25 °C; kon and koff from pseudo-first-order plots; apparent Kd = koff/kon, two-state process assumed
[7] = molecular target: T2, IBB-depleted species of Impα3 (residues …); assay: other fluorescence titration; intrinsic fluorescence, excitation at 280 or 295 nm; Impα3 or ∆Impα3 fixed at 3 μM (protomer units), peptide 0–35 μM; 50 mM Tris pH 8.0; 25 °C
[8] = molecular target: T1, Human importin α3 isoform (residues …); assay: as above

| Binder | dH [1] [kcal/mol] | dH [2] [kcal/mol] | Kd [3] [µM] | koff [3] [s⁻¹] | kon [3] [M⁻¹ s⁻¹] | Kd [4] [µM] | Kd [5] [µM] | Kd [6] [µM] | koff [6] [s⁻¹] | kon [6] [M⁻¹ s⁻¹] | Kd [7] [µM] | Kd [8] [µM] |
| --- | --- | --- | --- | --- | --- | --- | --- | --- | --- | --- | --- | --- |
| B1 | -2.5 ± 0.2 | -4.5 ± 0.7 | 1 | 0.069 | 68000 | 2.7 ± 0.6 | 5 ± 1 | 0.7 | 0.038 | 51200 | – | – |
| B2 | – | – | 15 | 0.6 | 45000 | – | – | 6 | 0.37 | 60000 | 16 ± 11 | 12 ± 5 |
